Experimental findings from patent publication US20200078439A1 (IMMATICS BIOTECHNOLOGIES, published 2020) are described below.

The target in the experiment is T1, HLA-A*0211 (purified recombinant HLA-A*0211 heavy chain with beta-2 microglobulin) (human).
T1 construct: MHC class I molecule without peptide; folds with b2m in a peptide-dependent manner, and folded complex is measured by ELISA
Nature of the experiment: ELISA-based refolding assay: recombinant HLA-A*0211 heavy chain + b2m + graded doses of peptide. (In general: An ELISA detects its analyte on a solid surface through an enzyme-linked reagent.)

As to LDRERAKN [BIR-12 (C-terminal octamer of BIR-004: LDRERAKN)], the binding result is recorded as “no binding”.

In the case of LKLDRERAKN [BIR-13 (C-terminal decamer of BIR-004: LKLDRERAKN)], the binding result is on record as “binds”. For the molecule KLDRERAKN (also called nonamer BIR-11) [BIR-11 (C-terminal nonamer of BIR-004: KLDRERAKN)], the binding result is on record as “binds”.
